Measured values from US20050136061A1 (published 2005).
No end group written: not given here.

Target: HIV-1 IIIB transmembrane glycoprotein gp41 (HIV-1 IIIB)
Test: cell-based or functional assay

WQEWEQKITALLEQAQIQQEKNEYELQKLDKWASLWEWF (not fully specified) [T-1249 peptide]
IC50, inhibition of HIV-1 IIIB infection of MT4-Luc cells (HIV LTR-luciferase reporter assay): ~3.3 nM
